# From IntAct's records for PubMed 31515488
# B1: Tektin-4 (Homo sapiens), Q8WW24 (parent)
# chain: MAQTVPPCELPCKEYDVARNTGAYTSSGLATASFRTSKYLLEEWFQNCYARYHQAFADRDQSERQRHESQQLATETQALAQRTQQDSTRTVGERLQDTHSWKSELQREMEALAAETNLLLAQKQRLERALDATEVPFSITTDNLQCRERREHPNLVRDHVETELLKEAELIRNIQELLKRTIMQAVSQIRLNREHKETCEMDWSDKMEAYNIDETCGRHHSQSTEVQAHPYSTTFQESASTPETRAKFTQDNLCRAQRERLASANLRVLVDCILRDTSEDLRLQCDAVNLAFGRRCEELEDARYKLHHHLHKTLREITDQEHNVAALKQAIKDKEAPLHVAQTRLYLRSHRPNMELCRDAAQFRLLSEVEELNMSLTALREKLLEAEQSLRNLEDIHMSLEKDIAAMTNSLFIDRQKCMAHRTRYPTILQLAGYQ
# partner: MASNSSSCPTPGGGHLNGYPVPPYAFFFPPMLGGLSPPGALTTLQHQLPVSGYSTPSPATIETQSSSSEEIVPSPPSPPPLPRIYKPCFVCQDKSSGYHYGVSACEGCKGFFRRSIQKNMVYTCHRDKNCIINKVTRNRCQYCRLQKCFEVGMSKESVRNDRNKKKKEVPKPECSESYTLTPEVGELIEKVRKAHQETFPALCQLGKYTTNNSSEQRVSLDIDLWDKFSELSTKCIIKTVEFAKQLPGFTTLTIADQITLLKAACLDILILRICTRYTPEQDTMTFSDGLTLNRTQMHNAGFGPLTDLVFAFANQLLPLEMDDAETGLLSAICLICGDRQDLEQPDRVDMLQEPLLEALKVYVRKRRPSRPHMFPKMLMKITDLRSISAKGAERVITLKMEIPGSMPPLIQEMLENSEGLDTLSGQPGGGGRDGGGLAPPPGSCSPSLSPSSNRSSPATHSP
# B2: Protein LRATD2 (Homo sapiens), Q96KN1 (parent)
# chain: MGNQVEKLTHLSYKEVPTADPTGVDRDDGPRIGVSYIFSNDDEDVEPQPPPQGPDGGGLPDGGDGPPPPQPQPYDPRLHEVECSVFYRDECIYQKSFAPGSAALSTYTPENLLNKCKPGDLVEFVSQAQYPHWAVYVGNFQVVHLHRLEVINSFLTDASQGRRGRVVNDLYRYKPLSSSAVVRNALAHVGAKERELSWRNSESFAAWCRYGKREFKIGGELRIGKQPYRLQIQLSAQRSHTLEFQSLEDLIMEKRRNDQIGRAAVLQELATHLHPAEPEEGDSNVARTTPPPGRPPAPSSEEEDGEAVAH
# partner: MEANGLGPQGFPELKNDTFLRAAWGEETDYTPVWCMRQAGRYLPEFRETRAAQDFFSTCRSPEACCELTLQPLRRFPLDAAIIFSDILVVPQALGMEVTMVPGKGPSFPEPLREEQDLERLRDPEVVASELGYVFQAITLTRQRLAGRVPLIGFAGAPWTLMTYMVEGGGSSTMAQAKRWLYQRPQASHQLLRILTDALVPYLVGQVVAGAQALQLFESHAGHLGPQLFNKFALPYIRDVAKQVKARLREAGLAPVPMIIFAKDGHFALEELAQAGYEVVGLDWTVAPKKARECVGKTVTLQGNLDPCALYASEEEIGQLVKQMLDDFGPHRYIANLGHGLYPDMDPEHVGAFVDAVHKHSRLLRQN
# B3: UPF0688 protein C1orf174 (Homo sapiens), Q8IYL3 (parent)
# chain: MRSRKLTGAVRSSARLKARSCSAARLASAQEVAGSTSAKTACLTSSSHKATDTRTSKKFKCDKGHLVKSELQKLVPKNDSASLPKVTPETPCENEFAEGSALLPGSEAGVSVQQGAASLPLGGCRVVSDSRLAKTRDGLSVPKHSAGSGAEESNSSSTVQKQNEPGLQTEDVQKPPLQMDNSVFLDDDSNQPMPVSRFFGNVELMQDLPPASSSCPSMSRREFRKMHFRAKDDDDDDDDDAEM
# B4: Fibronectin type III and SPRY domain-containing protein 2 (Homo sapiens), A1L4K1 (parent)
# chain: MEEESGEELGLDRSTPKDFHFYHMDLYDSEDRLHLFPEENTRMRKVVQAEMANESRGAGDGKAQRDLQEEVDELVHLYGLEDDHELGDEFVDENIPRTGVSEYPPYMMKRRDPAREQRDWRLSGEAAEAEDLGFGGWGSAGQCQDLREAYRYTHGRASEEYECYVIPEEEDEEEAADVFCVTCKTPIRAFQKVFDEHKEHEVIPLNEALESAKDEIHKNMYKLEKQIIEMENFANHLEEVFITVEENFGKQEQNFESHYNEILETLAQKYEEKIQALGEKKKEKLEALYGQLVSCGENLDTCKELMETIEEMCHEEKVDFIKDAVAMADRLGKFLKTKTDVEISAQPEFEDQTLDFSDVEQLMGSINTIPAPSAPVINPQVPNSATGSSVRVCWSLYSDDTVESYQLSYRPVQDSSPGTDQAEFTVTVKETYCSVTNLVPNTQYEFWVTAHNRAGPSPSSERAVYMTAPSPPIIKTKEIRSCEEAVLICWESGNLNPVDSYTVELTQAESPEASGVTESVVGIPTCESVVQLQPGRSYIIYVRALNMGGPSVRSEPATVHTIGSYFRLNKDTCHPWLTISEDGLTAVRSERRTPARELSPSDTHFTRCVAVMGNLIPVRGHHYWEVEVDEHLDYRVGVAFADVRKQEDLGANCLSWCMRHTFASSRHKYEFLHNRTTPDIRITVPPKKIGILLDYEHSKLSFFNVDLSQHLYTFSCQLHEFVHPCFSLEKPGCLKVHNGISMPKHVTFY
# partner: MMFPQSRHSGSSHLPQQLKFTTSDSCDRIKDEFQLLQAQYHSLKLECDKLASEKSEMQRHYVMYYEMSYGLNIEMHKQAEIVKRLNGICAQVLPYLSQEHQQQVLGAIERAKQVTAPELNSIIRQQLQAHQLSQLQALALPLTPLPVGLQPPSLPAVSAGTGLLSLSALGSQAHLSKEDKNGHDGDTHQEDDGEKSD
# B5: Adenosylhomocysteinase (Homo sapiens), P23526 (parent)
# chain: MSDKLPYKVADIGLAAWGRKALDIAENEMPGLMRMRERYSASKPLKGARIAGCLHMTVETAVLIETLVTLGAEVQWSSCNIFSTQDHAAAAIAKAGIPVYAWKGETDEEYLWCIEQTLYFKDGPLNMILDDGGDLTNLIHTKYPQLLPGIRGISEETTTGVHNLYKMMANGILKVPAINVNDSVTKSKFDNLYGCRESLIDGIKRATDVMIAGKVAVVAGYGDVGKGCAQALRGFGARVIITEIDPINALQAAMEGYEVTTMDEACQEGNIFVTTTGCIDIILGRHFEQMKDDAIVCNIGHFDVEIDVKWLNENAVEKVNIKPQVDRYRLKNGRRIILLAEGRLVNLGCAMGHPSFVMSNSFTNQVMAQIELWTHPDKYPVGVHFLPKKLDEAVAEAHLGKLNVKLTKLTEKQAQYLGMSCDGPFKPDHYRY
# B6: Tuftelin-interacting protein 11 (Homo sapiens), Q9UBB9 (parent)
# chain: MSLSHLYRDGEGRIDDDDDERENFEITDWDLQNEFNPNRQRHWQTKEEATYGVWAERDSDDERPSFGGKRARDYSAPVNFISAGLKKGAAEEAELEDSDDEEKPVKQDDFPKDFGPRKLKTGGNFKPSQKGFAGGTKSFMDFGSWERHTKGIGQKLLQKMGYVPGRGLGKNAQGIINPIEAKQRKGKGAVGAYGSERTTQSMQDFPVVDSEEEAEEEFQKELSQWRKDPSGSKKKPKYSYKTVEELKAKGRISKKLTAPQKELSQVKVIDMTGREQKVYYSYSQISHKHNVPDDGLPLQSQQLPQSGKEAKAPGFALPELEHNLQLLIDLTEQEIIQNDRQLQYERDMVVNLFHELEKMTEVLDHEERVISNLSKVLEMVEECERRMQPDCSNPLTLDECARIFETLQDKYYEEYRMSDRVDLAVAIVYPLMKEYFKEWDPLKDCTYGTEIISKWKSLLENDQLLSHGGQDLSADAFHRLIWEVWMPFVRNIVTQWQPRNCDPMVDFLDSWVHIIPVWILDNILDQLIFPKLQKEVENWNPLTDTVPIHSWIHPWLPLMQARLEPLYSPIRSKLSSALQKWHPSDSSAKLILQPWKDVFTPGSWEAFMVKNIVPKLGMCLGELVINPHQQHMDAFYWVIDWEGMISVSSLVGLLEKHFFPKWLQVLCSWLSNSPNYEEITKWYLGWKSMFSDQVLAHPSVKDKFNEALDIMNRAVSSNVGAYMQPGARENIAYLTHTERRKDFQYEAMQERREAENMAQRGIGVAASSVPMNFKDLIETKAEEHNIVFMPVIGKRHEGKQLYTFGRIVIYIDRGVVFVQGEKTWVPTSLQSLIDMAK
# partner: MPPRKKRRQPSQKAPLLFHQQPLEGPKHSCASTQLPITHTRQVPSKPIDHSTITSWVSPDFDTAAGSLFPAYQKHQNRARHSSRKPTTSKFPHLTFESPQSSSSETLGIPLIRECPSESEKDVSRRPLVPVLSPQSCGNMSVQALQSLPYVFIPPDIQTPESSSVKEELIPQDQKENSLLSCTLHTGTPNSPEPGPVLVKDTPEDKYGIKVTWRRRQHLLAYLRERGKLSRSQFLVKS
# B7: Fibronectin type III and SPRY domain-containing protein 2 (Homo sapiens), A1L4K1 (parent)
# chain: B4 chain
# partner: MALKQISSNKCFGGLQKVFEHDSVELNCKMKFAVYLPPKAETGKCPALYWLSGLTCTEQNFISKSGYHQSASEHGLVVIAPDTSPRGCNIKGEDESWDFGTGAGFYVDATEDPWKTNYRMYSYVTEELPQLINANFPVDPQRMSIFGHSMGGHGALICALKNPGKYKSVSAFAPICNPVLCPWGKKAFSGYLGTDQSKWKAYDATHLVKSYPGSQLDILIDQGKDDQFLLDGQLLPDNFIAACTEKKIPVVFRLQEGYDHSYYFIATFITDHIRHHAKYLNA
# B8: Protein BEX5 (Homo sapiens), Q5H9J7 (parent)
# chain: MENVPKENKVVEKAPVQNEAPALGGGEYQEPGGNVKGVWAPPAPGFGEDVPNRLVDNIDMIDGDGDDMERFMEEMRELRRKIRELQLRYSLRILIGDPPHHDHHDEFCLMP
# partner: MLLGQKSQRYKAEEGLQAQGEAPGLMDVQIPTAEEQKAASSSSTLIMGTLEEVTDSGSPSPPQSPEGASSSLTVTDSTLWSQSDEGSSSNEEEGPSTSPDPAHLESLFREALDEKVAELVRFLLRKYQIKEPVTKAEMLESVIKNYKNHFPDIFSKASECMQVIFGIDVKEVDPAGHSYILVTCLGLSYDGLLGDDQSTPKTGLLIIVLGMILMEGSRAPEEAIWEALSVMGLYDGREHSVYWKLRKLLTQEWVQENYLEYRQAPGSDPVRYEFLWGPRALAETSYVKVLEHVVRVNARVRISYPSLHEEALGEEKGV
# B9: Consortin (Homo sapiens), Q6PJW8 (parent)
# chain: MDDSDTPTYYLQIEPQDGCHPGDSVERSVTCLPSASDENENQLDGDGHEHLTSSDSAMGKPQVSEQDSLNNNESCTLSCEVAAGENLQNTLCEASRDEQAFLGKDKKIPGKRSPRSKKGTAKKIPPGLFSGDIAPLMQEKVLSAVTYAVDDEEAAEVNANEQPEAPKLVLQSLFSLIRGEVEQLDSRALPLCLHQIAESYFQEEDYEKAMKFIQLERLYHEQLLANLSAIQEQWETKWKTVQPHTVTALRNSEKGFNGEDFERLTKICATHQDPLLSKHKIAAVEKSQERKCSTQLLVSEDPKEGGATTKESESKTCLGTESSKESQHTVEPLGSSPCCHQMDVQTDSPSLSVTAGKDHMEELLCSAEATLALHTQSSETAGSPSGPDSSEDACEDDSRLQLAQTEACQDVARIEGIAEDPKVFLSSKSKTEPLISPGCDRIPPALISEGKYSQAQRKELRLPLRDASEALPTDQLENNELNELQQPDLTDSDGKSPQAQADSDGSENVLCGNNQISDLGILLPEVCMAPEEKGDKDDQLNKETEDYLNSLLEGCLKDTEDSLSYEDNQDDDSDLLQDLSPEEASYSLQENLPSDESCLSLDDLAKRIEIAEVVPTEGLVSILKKRNDTVGDHPAQMQHKPSKRRVRFQEIDDSLDQDEVGGGSCILLVLLCIATVFLSVGGTALYCTFGDMESPVCTDFADNMDFYYTKLLQGVAELKHWIYLS
# B10: UPF0462 protein C4orf33 (Homo sapiens), Q8N1A6 (parent)
# chain: MDFKIEHTWDGFPVKHEPVFIRLNPGDRGVMMDISAPFFRDPPAPLGEPGKPFNELWDYEVVEAFFLNDITEQYLEVELCPHGQHLVLLLSGRRNVWKQELPLSFRMSRGETKWEGKAYLPWSYFPPNVTKFNSFAIHGSKDKRSYEALYPVPQHELQQGQKPDFHCLEYFKSFNFNTLLGEEWKQPESDLWLIEKCDI
# Variants of: B1
# Settings: with rara_human RARA
row,effect of a mutation on the interaction,Variant
1,with no effect,D403N
2,with no effect,R64W
3,with no effect,N409K
4,disrupting interaction strength,I404T
5,disrupting interaction strength,A80V
6,with no effect,M374T

# Variants of: B2
# Settings: with dcup_human UROD
row,effect of a mutation on the interaction,Variant
1,with no effect,P71T

# Variants of: B3
# Settings: with ikzf1_human IKZF1, Q13422
# ikzf1_human IKZF1, Q13422, sequence (Q13422 whole entry): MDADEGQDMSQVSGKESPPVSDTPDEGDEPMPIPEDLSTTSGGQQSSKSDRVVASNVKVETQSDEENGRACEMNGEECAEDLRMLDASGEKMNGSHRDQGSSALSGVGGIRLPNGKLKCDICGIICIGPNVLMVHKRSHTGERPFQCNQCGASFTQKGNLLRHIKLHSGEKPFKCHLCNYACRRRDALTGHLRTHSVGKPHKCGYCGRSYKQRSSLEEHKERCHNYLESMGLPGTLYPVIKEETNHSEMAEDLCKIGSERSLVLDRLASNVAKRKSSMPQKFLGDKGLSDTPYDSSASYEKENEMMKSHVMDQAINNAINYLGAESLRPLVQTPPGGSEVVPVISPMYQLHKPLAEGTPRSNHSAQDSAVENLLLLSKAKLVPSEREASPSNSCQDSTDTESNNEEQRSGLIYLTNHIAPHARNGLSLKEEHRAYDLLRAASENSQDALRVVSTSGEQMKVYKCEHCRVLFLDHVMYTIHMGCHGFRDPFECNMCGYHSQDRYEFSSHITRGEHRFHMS
row,effect of a mutation on the interaction,Variant
1,with no effect,R131C
2,with no effect,A81T
3,with no effect,S82A
4,with no effect,V195M

# Variants of: B4
# Settings: with tle5_human TLE5, Q08117
row,effect of a mutation on the interaction,Variant
1,with no effect,K333T
2,with no effect,E720K

# Variants of: B5
# Settings: with ca050_human C1orf50, Q9BV19
# ca050_human C1orf50, Q9BV19, sequence (Q9BV19 whole entry): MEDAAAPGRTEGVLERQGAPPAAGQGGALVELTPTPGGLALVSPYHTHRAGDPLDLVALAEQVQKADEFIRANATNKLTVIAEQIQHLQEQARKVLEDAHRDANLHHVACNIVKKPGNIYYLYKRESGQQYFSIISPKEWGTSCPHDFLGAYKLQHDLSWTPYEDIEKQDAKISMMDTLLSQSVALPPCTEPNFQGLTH
row,effect of a mutation on the interaction,Variant
1,with no effect,I92V

# Variants of: B6
# Settings: with rhno1_human RHNO1, Q9BSD3
row,effect of a mutation on the interaction,Variant
1,with no effect,S688L
2,with no effect,R8Q

# Variants of: B7
# Settings: with estd_human ESD
row,effect of a mutation on the interaction,Variant
1,with no effect,E720K
2,with no effect,K333T

# Variants of: B8
# Settings: with maga8_human MAGEA8, P43361
row,effect of a mutation on the interaction,Variant
1,with no effect,E74D

# Variants of: B9
# Settings: with rop1a_human ROPN1, Q9HAT0
# rop1a_human ROPN1, Q9HAT0, sequence (Q9HAT0 whole entry): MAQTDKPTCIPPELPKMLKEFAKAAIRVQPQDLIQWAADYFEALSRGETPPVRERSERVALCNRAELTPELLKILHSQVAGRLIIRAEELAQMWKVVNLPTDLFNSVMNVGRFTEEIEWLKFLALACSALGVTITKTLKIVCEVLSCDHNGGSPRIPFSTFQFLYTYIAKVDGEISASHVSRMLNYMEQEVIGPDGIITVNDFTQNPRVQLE
row,effect of a mutation on the interaction,Variant
1,with no effect,R399C
2,with no effect,Q183R

# Variants of: B10
# Settings: with vac14_human VAC14, Q08AM6
# vac14_human VAC14, Q08AM6, sequence (Q08AM6 whole entry): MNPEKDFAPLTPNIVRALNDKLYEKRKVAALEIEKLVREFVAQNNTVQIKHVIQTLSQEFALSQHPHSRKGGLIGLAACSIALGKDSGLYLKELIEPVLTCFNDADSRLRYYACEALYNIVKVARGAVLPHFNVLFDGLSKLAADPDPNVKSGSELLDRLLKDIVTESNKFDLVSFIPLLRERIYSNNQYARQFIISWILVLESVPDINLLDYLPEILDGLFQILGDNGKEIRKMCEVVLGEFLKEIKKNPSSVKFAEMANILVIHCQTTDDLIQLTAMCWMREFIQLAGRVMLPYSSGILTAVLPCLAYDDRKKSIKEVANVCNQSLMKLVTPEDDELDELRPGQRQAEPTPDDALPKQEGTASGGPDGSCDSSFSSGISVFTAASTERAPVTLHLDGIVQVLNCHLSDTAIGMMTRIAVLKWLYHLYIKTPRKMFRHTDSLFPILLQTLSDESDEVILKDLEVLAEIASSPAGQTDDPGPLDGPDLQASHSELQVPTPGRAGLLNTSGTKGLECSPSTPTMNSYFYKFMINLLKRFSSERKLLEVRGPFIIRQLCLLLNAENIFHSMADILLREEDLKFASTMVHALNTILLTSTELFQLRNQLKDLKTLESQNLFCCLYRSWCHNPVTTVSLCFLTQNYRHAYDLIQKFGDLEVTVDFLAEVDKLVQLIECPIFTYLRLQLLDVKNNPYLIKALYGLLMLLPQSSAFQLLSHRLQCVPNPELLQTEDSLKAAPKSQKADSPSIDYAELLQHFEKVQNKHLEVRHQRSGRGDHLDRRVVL
row,effect of a mutation on the interaction,Variant
1,with no effect,H166R
